Test [1] concerns the target T1, VEGF-A121 binding to VEGFR1-Fc (Homo sapiens, UniProt P15692).
T1 construct: purchased Acro Biosystems (VEGF-A121); R&D Systems (VEGFR1-Fc) VE1-H82E7; 3516-FL-050
T1 sequence (P15692 27-147 isoform P15692-9 limits assumed): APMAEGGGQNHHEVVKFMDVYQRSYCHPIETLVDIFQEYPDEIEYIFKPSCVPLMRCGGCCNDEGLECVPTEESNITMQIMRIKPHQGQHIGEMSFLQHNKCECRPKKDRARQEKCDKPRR
Nature of the test: non-equilibrium VEGF-A blocking ELISA on VEGFR1-Fc. Format: biochemical. As to conditions: for improvement of IC50 over 11055: non-equilibrium blocking ELISA.

The target in test [2] is T1, VEGF-A121 binding to VEGFR1-Fc. Nature of the test: equilibrium binding VEGF-A121/VEGFR1 blocking ELISA. It counts as biochemical. As to conditions: IC50, blocking VEGF-A binding to VEGFR1-Fc, 150 pM VEGF-A, overnight incubation.
Text: Biotinylated human VEGF-A121 (isoform 121) was purchased from Acro Biosystems (cat #VE1-H82E7). VEGFR-1-Fc was purchased from R&D Systems (cat #3516-FL-050).
The following day, coated wells were blocked with Super Block (Rockland) for 2 hr with shaking at room temp.
Data plotted are mean±standard deviation of triplicate measurements. IC50 values were derived from 3-parameter fits using Prism (GraphPad) and the error reported is derived from fits.
Test [3] has as its system VEGF-A signaling through VEGFR2. The test can be described thus: VEGFR2 luciferase reporter cell signaling assay (KDR/NFAT-RE HEK293). It counts as cell-based. As to conditions: 150 pM VEGF-A; read-out: IC50, inhibition of VEGFR2 signaling (luciferase). (In general: In a reporter assay the amount or activity of a reporter protein is the signal.)
Experimental: Here VEGF-A activates VEGFR2 signaling in 293 cells resulting in luciferase expression as a functional readout. Inhibition of VEGF-A signaling in this system results in a loss of luciferase signal.
Measurement of VEGF cellular signaling was performed using the VEGF Bioassay (Promega). Briefly, HEK293 cells are engineered to express VEGFR-2 coupled to a luciferase response element (KDR/NFAT-RE HEK293). VEGF signaling through VEGFR-2 mediates expression of luciferase which can be quantified using bioluminescence. […] Following incubation Bio-Glo is added to wells according to the manufacturer's protocol and relative luminescence units (RLUs) were measured on a PerkinElmer 2300 Enspire Multimode plate reader. Data plotted are mean±standard deviation of triplicate measurements. IC50 values were derived from 3-parameter fits using Prism (GraphPad) and error reported are derived from fits.
In test [4] the test system is HUVEC cell proliferation.
Text: Here, HUVEC cell proliferation is increased in the presence of recombinant VEGF-A and antagonist compounds that block VEGF-A signaling reduce HUVEC cell proliferation.
The target of test [5] is T2, VEGF-A (Homo sapiens, UniProt P15692).
T2 sequence (P15692 214-315): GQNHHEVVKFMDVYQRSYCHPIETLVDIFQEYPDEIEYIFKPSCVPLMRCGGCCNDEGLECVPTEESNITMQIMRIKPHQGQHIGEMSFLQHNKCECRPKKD
Nature of the test: SPR binding of D-peptidic compounds to L-VEGF-A. Set-up: Biotinylated VEGF-A(8-109) was immobilized on a biotin CAPture chip. As to conditions: for affinity improvement over 11055: SPR KD ratio versus parent 11055.
Experimental: Surface plasmon resonance (SPR) binding measurements were carried out on a Biacore S200 (GE). Biotinylated VEGF-A(8-109) was immobilized on a biotin CAPture chip (GE) and serial dilutions of D-proteins were flowed over the chip at 30 μL/min in running buffer (10 mM Hepes, pH 7.4, 150 mM NaCl, 0.05% P20). […] All measurements were carried out at 25° C. SPR data are representative of multiple independent titrations. Kinetic fits were performed using Biacore software using a global single site binding model.

The test system of test [6] is VEGF-A165-induced vascular leakage. The test can be described thus: rabbit eye model of wet AMD, fluorescein angiography. As to conditions: single intravitreal dose 1.0 mg. Format: in vivo. The text has this:
FIG. 44A-44B show in vivo activity of D-protein RFX-980869 in a rabbit eye model of wet AMD. (FIG. 44A) Representative fluorescein angiography (FA) images depicting the extent of VEGF-A165-induced vascular leakage at Day 5 and Day 26 post administration of respective drugs (control=no drug treatment). (FIG. 44B) Plots of individual FA scores at Day 5 and Day 26. Scoring is as follows: 0=major vessels straight with some tortuosity of small vessels and no dilation, 1=increased tortuosity of major vessels and some dilation, 2=leakage between major vessels and significant dilation, 3=leakage between major and minor vessels and minor vessels still visible, 4=leakage between major and minor vessels and minor vessels poorly visible or not visible. N=5 rabbits per group (10 eyes). All data is plotted as mean±SEM. (****p<0.0001, Mann-whitney test)
In the rabbit eye model for wet AMD, intravitreal challenge with exogenous VEGF-A165 induces vascular leakage of the retina that can be monitored using fluorescein angiography (FA). VEGF-A blockade can prevent the diffuse leakage of fluorescein into the eye, which serves as a measure of efficacy. […] After a single intravitreal administration of RFX-980869 at 0.25 mg or 1.0 mg per eye, rabbits were challenged with exogenous VEGF-A twice over a 1-month period (Day 2 and Day 23) and their eyes were examined three days later (Day 5 and Day 26). […]

Test [7] has as its target T2, VEGF-A. As to conditions: 5 μM 978336 to saturation, then 5 μM 978336 plus 1 μM 11055.
The target of test [8] is T3, L-VEGF-A (Homo sapiens, UniProt P15692).
T3 construct: Biotinylated VEGF-A(8-109) was immobilized on a biotin CAPture chip
The test can be described thus: ka (10^6/M^-1s^-1).

Test [9] concerns the target T3, L-VEGF-A. The test can be described thus: kd (s^-1).
In test [10] the target is L-VEGF-A (8-109) (Homo sapiens (Human)) (UniProt P15692). Nature of the test: SPR. (In general: In SPR one partner is held on a chip, and binding of the other changes the refractive index at the surface.)
Test [11] addresses VEGF-A (form not stated) (UniProt P15692). The test can be described thus: cell-based or functional assay.
The target in test [12] is L-VEGF-A (8-109) (Homo sapiens (Human)) (UniProt P15692). The test can be described thus: SPR on natural L-VEGF-A.
In test [13] the target is T4, Biotinylated human VEGF-A121 (human, UniProt P15692-9 27-147, biotinylated).
T4 construct: Bought; also called VEGF-A121-biot
T4 sequence (looked up): T1 sequence (P15692 27-147 isoform P15692-9 limits assumed)
The test can be described thus: non-equilibrium VEGF-A121 blocking ELISA.

Test [14] has as its target VEGF-A (form not stated) (UniProt P15692). The test can be described thus: VEGF-A blocking ELISA on coated VEGFR1-Fc. A general note: An ELISA detects its analyte on a solid surface through an enzyme-linked reagent.
Test [15] deals with T4, Biotinylated human VEGF-A121. The test can be described thus: equilibrium VEGF-A121/VEGFR1 blocking ELISA.
For test [16], the target named is L-VEGF-A (8-109) (Homo sapiens (Human)) (UniProt P15692). The test can be described thus: SPR per Examples 7, 8, 11 (method not named in Table 4).
The target of test [17] is VEGF-A (form not stated) (UniProt P15692). The test can be described thus: equilibrium VEGF-A/VEGFR1 blocking ELISA, 150 pM VEGF-A.
Test [18] deals with L-VEGF-A (8-109) (Homo sapiens (Human)) (UniProt P15692). The test can be described thus: SPR, biotinylated VEGF-A(8-109) on a biotin CAPture chip, D-protein in solution, global single site kinetic fit.
Test [19] has as its target T4, Biotinylated human VEGF-A121. Nature of the test: equilibrium VEGF-A121/VEGFR1 blocking ELISA; soluble VEGFR1-Fc against coated VEGFR1-Fc.
Test [20] has as its target T5, VEGF-A (form not stated) (UniProt P15692-9 27-147, limits assumed).
T5 construct: also called biotinylated-VEGF-A; recombinant VEGF-A
T5 sequence (looked up): T1 sequence (P15692 27-147 isoform P15692-9 limits assumed)
The test can be described thus: equilibrium VEGF-A/VEGFR1 blocking ELISA, 150 pM VEGF-A; soluble VEGFR1-Fc against coated VEGFR1-Fc.

“And” between values parts separate entries of the source, which are not always exact repeats. Identical values can stand only once. Bridges are numbered along the chain shown (N, C = ends). Where no end group is shown, it is not given here. [ ]: non-standard residue; d: D form.

For orientation: Kd means the free concentration of one partner at which half of the binding sites on the other are occupied at equilibrium, for simple one-to-one binding. High values mean a looser complex, low ones a tighter complex. On to “[dY][dH][dI][dQ][dW][dV][dC][dK][dN][dA][dK][dE][dD][dA][dI][dA][dE][dL][dK][dK][dA]G[dI][dT][dE][dP][dH][dV][dI][dS][dF][dI][dN][dH][dA][dP][dN][dC][dS][dH][dV][dN]G[dL][dK][dN][dA][dI][dL][dK][dA][dH][dA]-NH2 (disulfide 7-38) [Compound 979110, yhiqwvcknakedaiaelkkaGitephvisfinhapncshvnGlknailkaha]”, for which the IC50 is 3.5 nM in test [1]; 7 nM and 7.6 nM in [2]; 6.1 nM in test [3]; 131 nM in [4] (read-out: IC50 for inhibition of cell proliferation in response to VEGF signaling, HUVEC, recombinant VEGF-A). The entries for the “improvement of IC50 over 11055” value in test [1] and in test [1] (listed as RFX-979110) were 14.8 fold and 15 fold, respectively. Also, the “fold weaker than bevacizumab (Avastin)” value in [4] (HUVEC proliferation) was 185 fold. The “potency improvement over 11055” value in [4] (HUVEC proliferation) was 4 fold. Besides, the “affinity improvement over 11055” value in test [5] is approximately 10 fold; in [5] (listed as RFX-979110) it was 19 fold. The Kd in [5] (VEGF-A binding affinity (KD) measured by SPR, running text and figure legends, L-VEGF-A) was 3.6 nM and 2.3 nM.

Turning to aflibercept, in test [6], the “vascular leakage at Day 26” value was “completely blocked vascular leakage”.

With “tidqwllknakedaiaelkkaGitephvisfinhapyvshvnGlknailkaha [Compound 11055]”, the “binding of 978336 and 11055 together to VEGF-A” value in [7] is “additive binding”.

As to “yhiqwvcknakedaiaelkkaGitephvisfinhapncshvnGlknailkaha ([dY][dH][dI][dQ][dW][dV][dC][dK][dN][dA][dK][dE][dD][dA][dI][dA][dE][dL][dK][dK][dA]G[dI][dT][dE][dP][dH][dV][dI][dS][dF][dI][dN][dH][dA][dP][dN][dC][dS][dH][dV][dN]G[dL][dK][dN][dA][dI][dL][dK][dA][dH][dA]-NH2; disulfide 7-38; not fully specified; printed as yhiqwvcknakedaiaelkkaGitephvisfinhapncshvnGlknailkaha) [Compound 979110]”, in test [8], the “ka (10^6/M^-1s^-1)” value is on record as 2.14 10^6/M^-1s^-1. The “kd” value in test [9] was 0.0052 s⁻¹.

B1: RFX-979110 (designed binder)
chain: [dY][dH][dI][dQ][dW][dV][dC][dK][dN][dA][dK][dE][dD][dA][dI][dA][dE][dL][dK][dK][dA]G[dI][dT][dE][dP][dH][dV][dI][dS][dF][dI][dN][dH][dA][dP][dN][dC][dS][dH][dV][dN]G[dL][dK][dN][dA][dI][dL][dK][dA][dH][dA]-NH2
modifications: disulfide 7-38; not fully specified
As a reminder, the koff is a measure of how fast the partners let go of each other. A higher koff goes with a short-lived complex. In general, kon refers to a measure of how fast the partners come together. Read a low kon as slow association. With B1, in [10], the fold affinity improvement over RFX-11055 amounted to 19 fold and the fold improvement of VEGF binding over 11055 was 10 fold. Moreover, in test [11], the HUVEC cell proliferation, apparent IC50 came to 131 nM; the HUVEC cell proliferation, potency against 11055 came to 4 fold; the fold decrease in HUVEC cell proliferation, potency against bevacizumab was 185 fold. For the same molecule, the Kd in test [12] stood at 3.6 nM. Further, in test [13], the fold improvement of IC50 over RFX-11055 came out at 15 fold. Further, in test [14], the fold better IC50 than 11055 is 14.8 fold. In [15], this molecule registered an IC50 of 7.6 nM. In test [16], this molecule showed a Kd of 2.3 nM. In test [17], this molecule registered an IC50 of 7 nM. Besides, in [18], the koff came to 0.0052 s⁻¹ and the kon stood at 2.14e+06 M⁻¹ s⁻¹.

B2: VEGFR1-Fc (Fc fusion, UniProt P17948 27-756, looked up)
chain: SKLKDPELSLKGTQHIMQAGQTLHLQCRGEAAHKWSLPEMVSKESERLSITKSACGRNGKQFCSTLTLNTAQANHTGFYSCKYLAVPTSKKKETESAIYIFISDTGRPFVEMYSEIPEIIHMTEGRELVIPCRVTSPNITVTLKKFPLDTLIPDGKRIIWDSRKGFIISNATYKEIGLLTCEATVNGHLYKTNYLTHRQTNTIIDVQISTPRPVKLLRGHTLVLNCTATTPLNTRVQMTWSYPDEKNKRASVRRRIDQSNSHANIFYSVLTIDKMQNKDKGLYTCRVRSGPSFKSVNTSVHIYDKAFITVKHRKQQVLETVAGKRSYRLSMKVKAFPSPEVVWLKDGLPATEKSARYLTRGYSLIIKDVTEEDAGNYTILLSIKQSNVFKNLTATLIVNVKPQIYEKAVSSFPDPALYPLGSRQILTCTAYGIPQPTIKWFWHPCNHNHSEARCDFCSNNEESFILDADSNMGNRIESITQRMAIIEGKNKMASTLVVADSRISGIYICIASNKVGTVGRNISFYITDVPNGFHVNLEKMPTEGEDLKLSCTVNKFLYRDVTWILLRTVNNRTMHYSISKQKMAITKEHSITLNLTIMNVSLQDSGTYACRARNVYTGEEILQKKEITIRDQEAPYLLRNLSDHTVAISSSTTLDCHANGVPEPQITWFKNNHKIQQEPGIILGPGSSTLFIERVTEEDEGVYHCKATNQKGSVESSAYLTVQGTSDKSN
notes: Bought; also called VEGFR1-Fc fusion; soluble decoy receptor VEGFR1-Fc; not shown: Fc part
For B2, the IC50 in test [19] stood at 0.23 nM; in [20], 0.22 nM.

For the origin of these results see patent publication US20210061861A1, “D-PEPTIDIC COMPOUNDS FOR VEGF” (Reflexion Pharmaceuticals, Inc., priority 2019, published 2021).
